# According to US20240317871A1 (IMMUNOMIC THERAPEUTICS, published 2024):
# Substitutions are numbered along the chain they refer to.
# T1: murine HVEM (murine, UniProt Q80WM9 39-206, limits assumed)
# T1 construct: also called Mouse
# T1 sequence (looked up): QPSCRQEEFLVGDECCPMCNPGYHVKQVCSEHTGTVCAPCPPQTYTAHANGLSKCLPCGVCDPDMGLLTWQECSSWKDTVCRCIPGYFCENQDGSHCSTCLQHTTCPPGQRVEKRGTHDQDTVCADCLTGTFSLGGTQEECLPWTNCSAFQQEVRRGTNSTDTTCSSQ
# T2: human HVEM (human, UniProt Q92956 39-202, limits assumed)
# T2 sequence (looked up): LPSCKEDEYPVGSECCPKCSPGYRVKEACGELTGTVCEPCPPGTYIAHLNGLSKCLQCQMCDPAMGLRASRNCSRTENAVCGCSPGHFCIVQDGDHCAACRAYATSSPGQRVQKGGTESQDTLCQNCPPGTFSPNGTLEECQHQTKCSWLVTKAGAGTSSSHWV
# T3: cynomolgus monkey HVEM (cynomolgus monkey, UniProt A0A2K5W0R1 39-203)
# T3 sequence: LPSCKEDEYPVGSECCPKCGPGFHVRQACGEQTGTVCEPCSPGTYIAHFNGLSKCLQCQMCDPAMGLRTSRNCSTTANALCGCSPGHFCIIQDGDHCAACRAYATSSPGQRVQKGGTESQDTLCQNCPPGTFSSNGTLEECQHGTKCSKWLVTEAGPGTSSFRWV
# T4: Human HEVM recombinant protein (Sino Biological, 10334-H02H) (human, UniProt Q92956 39-202)
# T4 construct: construct known only by catalogue number; also called HVEM; human HVEM
# T4 sequence (looked up): T2 sequence (looked up)
# T5: His-tagged human HVEM (human, UniProt Q92956 39-202, limits assumed)
# T5 construct: Analyte of the BLI assay, 200 nM in PBS; not shown: His tag
# T5 sequence (looked up): T2 sequence (looked up)
# B1: Ab_006 (H5S14-5A5A) (antibody, V domains shown)
# VH: DVQLQESGPGLVKPSQSLSLTCTVTGYSITSDFAWNWIRQFPGNKLEWMGYIVYSGSTSYNPSLKSRISITRDTSKNQFFLQLNSVTAEDTATYFCTRGMDYWGQGTSVTVSS
# VL: QIVLTQSPAIISASLGEEVTLTCSASSSVSYMHWYQQKSGTSPKLLIYSTSNLASGVPSRFSGSGSGTFYSLTISSVEAEDAADYYCHQWSSYLTFGAGTKLELK
# notes: also called Ab_6
# B2: Ab_010 (H5S14-10A9A) (antibody, V domains shown)
# VH: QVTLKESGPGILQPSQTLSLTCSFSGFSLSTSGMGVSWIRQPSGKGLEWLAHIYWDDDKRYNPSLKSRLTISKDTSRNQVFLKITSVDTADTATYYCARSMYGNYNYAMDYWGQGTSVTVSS
# VL: DIQMTQSPASLSASVGETVTITCRASENIYSYLAWYQQKQGKSPQLLVYNAKTLAEGVPSRFSGSGSGTQFSLKINSLQPEDFGSYYCQHHYGTMYTFGGGTKLEIK
# notes: also called Ab_10
# B3: Ab_079 (H5S20-22A18A) (antibody, V domains shown)
# VH: EVQLQQSGAELVKPGASVKLSCTASGFNIKDTYMHWVKQRPEQGLEWIGRIDPANGNTKYAPKFQGKATITADTSSNTAYLQLSSLTSEDTAVYYCARSFGNYFDYWGQGTTLTVSS
# VL: NIVLTQSPASLAVSLGQRATISCRASESVDSYGNSFMHWYQQKPGQPPKLLIYLASNLESGVPARFSGSGSRTDFTLTIDPVEADDAATYYCQQNYADPWTFGGGTKLEIK
# notes: also called Ab_79
# B4: Ab_054 (H5S19-21A17C) (antibody, V domains shown)
# VH: QVQLKESGPGLVAPSQSLSITCTVSGFSLTSYGVHWVRQPPGKGLEWLGVIWAGGITNYNSALMSRLSISTDNSRSQVFLKMNSLQTDDTAMYYCARDWERDSSGPFPYWGQGTLVTVSA
# VL: DIQMTQTTSSLSASLGDRVTISCSASQGISNYLNWYQQKPDGTVKLLIYYTSSLHSGVPSRFSGSGSGTDYSLTISNLEPEDIATYFCQQYSKLPWTFGGGTKLEIK
# notes: also called Ab_54
# B5: Ab_025 (H5S15-2A2A) (antibody, V domains shown)
# VH: EVQLQQSGAELVKPGASVKLSCTASGFNIKDTYMHWVKQRPEQGLEWIGRIDPANDNTKYDPKFQGKATITADTSSNTAYLQLSSLTSEDTAVYYCARVYYAMDYWGQGTSVTVSS
# VL: DIQMTQSPASLSASVGETVTITCRASENIYSYLAWYQQKQGKSPQLLVYNAKTLAEGVPSRFSGSGSGTQFSLKINSLQPEDFGSYYCQHHYGTYTFGGGTKLEIK
# notes: also called Ab_25
# B6: Ab_083 (H5S20-49A39A) (antibody, V domains shown)
# VH: EVQLQQSGAELVKPGASVKLSCTASGFNIKDTYVHWVKERPEQGLEWIGRIDPANDNTKYAPKFQVKATITADTSSNTAYLQLSSLTSEDNAVYYCAPYGNYPAWFAYWGQGTLVTVSA
# VL: DVLMTQTPLSLPVSLGDQVSISCRSSQNIVHSNGNTYLEWYLQKPGQSPKLLIYKVSNRFSGVPDRFSGSGSGTDFTLKISRVEAEDLGVYYCFQGSHVPLTFGAGTKLELK
# notes: also called Ab_153; Ab_83
# B7: Ab_026 (H5S15-11A3B) (antibody, V domains shown)
# VH: EVQLQQSGADLVKPGASVKLSCTASGFNIKDTYMHWVKQRPEQGLEWIGRIAPANGRTKYDPKFQGKATITADTSSNTAYLQLSSLTSEDTAVYYCANYYASSYDWFAYWGQGTLVTVSA
# VL: B6 VL with P12T, D17H, V19A, N28S
# notes: also called Ab_26
# B8: Ab_027 (H5S15-17A16A) (antibody, V domains shown)
# VH: B7 VH with D10E, R57K, Y60F, A101G, S102R, Y104N, A108V
# VL: B6 VL with V19A, N28S, N35I, K50E
# notes: also called Ab_27
# B9: Ab_009 (H5S14-8A7A) (antibody, V domains shown)
# VH: EVKLVESGGDLVKPGGSLKLSCAASGFTFSNYAMSWVRQTPEKRLEWVASISTGGTTSYYSDSVKGRFTISRDNARNILYLQMSSLRSEDTAMYYCARGGGGNYFWFTYWGQGTLVTISA
# VL: DVVMTQTPLSLPVSLGDQASISCRSSQSLVHSNGNTYLHWYLQKPGQSPKLLIYKVSNRFSGVPDRFSGSGSGTDFTLKISRVEAEDLGVYFCSQSTHVPFTFGSGTKLEIK
# notes: also called Ab_9
# B10: Ab_071 (H5S20-3B7A) (antibody, V domains shown)
# VH: QVQLQQSGAELVRPGTSVKISCKASGYTFTNSWLGWVKQRPGHGLEWIGDIYPGGGYNKYNEKFRGKATLTADTSSSTAYMQLSSLTSEDSAVYFCAGAMDYWGQGTSVTVSS
# VL: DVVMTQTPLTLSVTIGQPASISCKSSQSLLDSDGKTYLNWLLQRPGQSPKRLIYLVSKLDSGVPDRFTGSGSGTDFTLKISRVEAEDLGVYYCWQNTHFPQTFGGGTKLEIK
# notes: also called Ab_149; Ab_71
# B11: Ab_028 (H5S15-33A29A) (antibody, V domains shown)
# VH: QVQLKQSGPGLVQPSQSLSITCTVSGFSLTTYGVHWVRQSPGKGLEWLGVIWSGGNTDYNPAFISRLSISKDNSKSQVFFKMNTLQASDTAIYYCARRGYNKGYAMDYWGQGTSFTVSS
# VL: EIVLTQSPALMTASPGEKVTITCSVSSTISSRNLHWYQQKSEASPKPWIYGTSNLASGVPVRFSGSGSGTSYSLTISSMEAEDAATYYCQQWNSYPLTFGSGTKLEIK
# notes: also called Ab_28
# B12: Ab_087 (H5S20-59A43A) (antibody, V domains shown)
# VH: EVKLVESGGGLVKPGGSLKLSCAASGFTFSSYAMSWVRQTPEKRLEWVASISSGSSTYYPDSVKGRFTISRDNARNILYLQMSSLRSEDTAMYYCAKGRGYGNYLYAMDYWGQGTSVTVSS
# VL: DIVMTQSQKFMSTSVGDRVSVTCKASQNVGTNVAWYQQKPGQSPKALIYSASYRYSGVPDRFTGSGSGTDFTLTISNVQSEDLAEYFCQQYNSYPLTFGGGTKLEIK
# notes: also called Ab_87
# B13: Ab_029 (H5S15-14A14B) (antibody, V domains shown)
# VH: EVQLQQSGPELVKPGASVKMSCKASGYTFTSYVMHWVKQKPGQGLEWIGYINPYNDDTNCNEKFKGKATLTSDKSSSTAYMELSRLTSEDSAVYYCAKARGYGSTFYYSMDYWGQGTSVTVSS
# VL: B12 VL with K39R, A46S, E85D, L96Y, T102A
# notes: also called Ab_29
# Molecular target: T1, murine HVEM
# Assay: ELISA
row,ELISA signal,Binder
1,0.043,B1
2,0.044,B2
3,0.054,B3
4,0.042,B4
5,0.045,B5
6,0.043,B6
7,0.043,B7
8,0.043,B8
9,0.047,B9
10,0.047,B10
11,0.05,B11
12,0.045,B12
13,0.045,B13

# Molecular target: T2, human HVEM
# Assay: ELISA
row,ELISA signal,Binder
1,3.14,B1
2,2.68,B2
3,2.97,B3
4,2.5,B4
5,3.01,B5
6,3.19,B6
7,3.1,B7
8,3.13,B8
9,3.11,B9
10,3.08,B10
11,3.16,B11
12,3.22,B12
13,3.33,B13

# Molecular target: T3, cynomolgus monkey HVEM
# Assay: ELISA
row,ELISA signal,Binder
1,2.69,B1
2,0.068,B2
3,0.062,B3
4,2.23,B4
5,3.16,B5
6,0.06,B6
7,0.088,B7
8,0.064,B8
9,1.88,B9
10,2.98,B10
11,2.19,B11
12,0.069,B12
13,0.068,B13

# Molecular target: T4, Human HEVM recombinant protein (Sino …)
# Assay: competition ELISA, competitor BTLA-His
# Experimental: (§1) The competitive activity of HVEM antibody to BTLA or LIGHT was evaluated with ELISA-based competitive assay. Briefly Human HEVM recombinant protein (Sino Biological, 10334-H02H, 4 ug/ml, 100 ul/well) was coated to ELISA plate (Thermo Scientific, 469949, 4C overnight). A pre-mixture of HVEM antibody clone with seral dilution and 400 nM BTLA-His (R&D systems, 9235-BT-050) or LIGHT-His (SinoBiological, 10386-H07H) recombinant protein was made and added to the ELISA plate after blocking with 3% BSA (200 ul/well, RT 2 Hr) for 1 Hr at RT. The serial dilutions of HVEM antibody clone involve 7 different concentrations, with a 3-fold dilution performed start from 100 nM for BTLA or 325 nM for LIGHT competitive assay. The concentration was the final concentration. Plate was washed with PBST; diluted HRP-anti-His (Biolegend, 652504, 1:1000) with PBS containing 5% FBS was added 100 ul per well for 1 Hr at RT. TMB substrate (KPL, 52-00-00) 100 ul per well after washing and incubate at room temperature for 15 minutes; then stop the development by adding 100 ul stop solution (KPL, 50-85-06). Plate was read at 450 nm. The IC50 was calculated using GraphPad Prism software (GraphPad Software, Inc. San Diego, CA, USA).
row,IC50,Binder
1,11.3 nM,B2
2,11 nM,B3
3,10 nM,B5
4,1.9 nM,B6
5,2.4 nM,B7
6,2.2 nM,B8
7,2.1 nM,B9
8,1.4 nM,B11
9,5.2 nM,B12
10,1.3 nM,B13

# Molecular target: T4, Human HEVM recombinant protein (Sino …)
# Assay: competition ELISA, competitor LIGHT-His
# Experimental: as §1
row,IC50,Binder
1,24.6 nM,B1
2,369 nM,B4
3,20.4 nM,B10

# Molecular target: T5, His-tagged human HVEM
# Assay: BLI OctetRed96, mAb captured, 200 nM His-HVEM
# Experimental: Binding of antibodies to HVEM may also be determined by bio-layer interferometry (BLI) on an OctetRed96@ system (Sartorius). (See http://www.fortebio.com/bli_technology.html for general description of a BLI assay.) For this experiment, murine anti-human HVEM antibodies were captured from culture supernatant using anti-mouse IgG Fc capture and immobilized to dip and read biosensors. Sensors were then dipped into a solution of 200 nM His-tagged human HVEM in phosphate-buffered saline (PBS). Probes were dipped into PBS assay buffer and the dissociation rate (koff) was measured. The association rate (kₒₙ) and affinity (KD) were determined by curve fitting analysis.
Kd,koff,kon,Binder
19.6 nM,0.00692 s⁻¹,353000 M⁻¹ s⁻¹,B1
7210 nM,1.15 s⁻¹,159000 M⁻¹ s⁻¹,B2
13.9 nM,0.0216 s⁻¹,1.56e+06 M⁻¹ s⁻¹,B3
20.4 nM,0.00291 s⁻¹,143000 M⁻¹ s⁻¹,B4
11.6 nM,0.00596 s⁻¹,515000 M⁻¹ s⁻¹,B5
65.8 nM,0.0167 s⁻¹,254000 M⁻¹ s⁻¹,B6
11.1 nM,0.00864 s⁻¹,776000 M⁻¹ s⁻¹,B7
2.68 nM,0.00171 s⁻¹,639000 M⁻¹ s⁻¹,B8
35.1 nM,0.0175 s⁻¹,497000 M⁻¹ s⁻¹,B9
2.2 nM,0.00093 s⁻¹,423000 M⁻¹ s⁻¹,B10
6.9 nM,0.00266 s⁻¹,386000 M⁻¹ s⁻¹,B11
1570 nM,0.323 s⁻¹,206000 M⁻¹ s⁻¹,B12
47 nM,0.0403 s⁻¹,858000 M⁻¹ s⁻¹,B13
